How the values were obtained:
recombinant mouse MAdCAM = biological target: T1, recombinant mouse MAdCAM (mouse, UniProt Q61826 22-365); test: ELISA
T1 sequence (looked up): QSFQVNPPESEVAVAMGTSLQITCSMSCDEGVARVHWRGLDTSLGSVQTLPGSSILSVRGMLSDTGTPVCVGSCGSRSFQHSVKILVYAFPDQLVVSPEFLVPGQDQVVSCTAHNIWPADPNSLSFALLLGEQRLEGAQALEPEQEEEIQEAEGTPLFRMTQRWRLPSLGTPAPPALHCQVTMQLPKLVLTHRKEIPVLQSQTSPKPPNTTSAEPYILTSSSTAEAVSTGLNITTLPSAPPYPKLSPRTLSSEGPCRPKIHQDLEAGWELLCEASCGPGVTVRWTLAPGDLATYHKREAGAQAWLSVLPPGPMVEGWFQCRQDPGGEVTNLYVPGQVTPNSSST

[1] = biological target: T2, chimeric cynomolgus/human MAdCAM (cynomolgus; human, UniProt Q13477 226-382, limits assumed); test: cell-based or functional assay
T2 sequence: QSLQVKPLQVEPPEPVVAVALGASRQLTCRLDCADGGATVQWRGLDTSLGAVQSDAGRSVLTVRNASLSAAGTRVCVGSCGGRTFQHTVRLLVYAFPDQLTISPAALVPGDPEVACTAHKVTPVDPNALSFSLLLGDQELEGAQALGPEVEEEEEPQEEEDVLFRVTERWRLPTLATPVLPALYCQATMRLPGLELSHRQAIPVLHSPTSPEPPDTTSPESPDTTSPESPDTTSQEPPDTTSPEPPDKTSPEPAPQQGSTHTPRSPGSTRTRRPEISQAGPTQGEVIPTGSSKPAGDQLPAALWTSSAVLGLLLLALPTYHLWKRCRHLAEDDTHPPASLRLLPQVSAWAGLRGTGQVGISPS

[2] = biological target: T3, MAdCAM-IgG1 Fc fusion protein (human); test: SPR BIAcore protocol 1: mAb captured, MAdCAM-IgG1 Fc injected
T3 construct: Made in CHO-DHFR cells; also called MAdCAM-IgFc
Experimental: To perform kinetic analyses, a high density mouse anti-human (IgG₂ and IgG₄) antibody surface over a CMS BIAcore sensor chip was prepared using routine amine coupling. Hybridoma supernatants were diluted 10, 5, 2-fold in HBS-P (10 mM HEPES pH 7.4, 150 mM NaCl, 0.005% Surfactant P20) running buffer containing 100 μg/mL BSA and 10 mg/mL carboxymethyldextran or used neat. Each mAb was captured onto a separate surface using a […] contact time and a 5 mM wash for stabilization of the mAb baseline. MAdCAM-IgG₁ Fc (141 nM) fusion protein was then injected at over all surfaces for one minute, followed by a 3 mM dissociation. The data were normalized for the amount of antibody captured on each surface and evaluated with global fit Langmuir 1:1, using baseline drift models available on the BIAevaluation software provided by BIAcore.

[3] = biological target: T4, human MAdCAM (full length) (human, UniProt Q13477 19-382); test: cell-based or functional assay
T4 sequence (looked up): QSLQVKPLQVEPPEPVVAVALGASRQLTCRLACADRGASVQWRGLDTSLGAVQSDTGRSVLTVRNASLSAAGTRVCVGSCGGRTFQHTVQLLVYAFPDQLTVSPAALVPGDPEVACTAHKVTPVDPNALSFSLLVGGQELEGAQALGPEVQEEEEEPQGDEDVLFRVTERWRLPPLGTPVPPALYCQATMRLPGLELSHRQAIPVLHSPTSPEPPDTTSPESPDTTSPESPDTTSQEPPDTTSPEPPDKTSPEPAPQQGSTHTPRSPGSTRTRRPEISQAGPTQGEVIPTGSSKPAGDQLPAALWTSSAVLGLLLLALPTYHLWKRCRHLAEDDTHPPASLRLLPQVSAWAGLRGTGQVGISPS

[4] = biological target: T3, MAdCAM-IgG1 Fc fusion protein; test: SPR BIAcore protocol 2: mAb amine-coupled, MAdCAM-IgG1 Fc injected
Experimental: Affinity-purified mAb were immobilized onto the dextran layer of a CMS biosensor chip using amine coupling. […] Samples of MAdCAM-IgG₁ Fc fusion protein in running buffer were prepared at concentrations ranging from 0.2-55 nM (a 0 nM solution comprising running buffer alone was included as a zero reference). Samples were randomized and injected in duplicate for 3 mM each across 4 flow cells using HBS-EP (10 mM HEPES pH 7.4, 150 mM NaCl, 3 mM EDTA, 0.005% Surfactant P20) as running buffer. A flow rate of 100 μL/min was used to minimize mass transport limitations. Dissociation of MAdCAM-IgG₁ Fc fusion protein was monitored for 180 mins, the surface regenerated by a 6 sec injection of 25 mM H₃PO₄ (50 μL/min), or 10 mM (6.22.2), 20 mM (6.67.1, 6.73.2, 6.77.1) to 25 mM (6.34.2) and 45 mM NaOH (6.14.2) and the data analysed using the BIAevaluation (v3.1) software package.
Target sequence in this assay (chain, as listed by the source limits assumed): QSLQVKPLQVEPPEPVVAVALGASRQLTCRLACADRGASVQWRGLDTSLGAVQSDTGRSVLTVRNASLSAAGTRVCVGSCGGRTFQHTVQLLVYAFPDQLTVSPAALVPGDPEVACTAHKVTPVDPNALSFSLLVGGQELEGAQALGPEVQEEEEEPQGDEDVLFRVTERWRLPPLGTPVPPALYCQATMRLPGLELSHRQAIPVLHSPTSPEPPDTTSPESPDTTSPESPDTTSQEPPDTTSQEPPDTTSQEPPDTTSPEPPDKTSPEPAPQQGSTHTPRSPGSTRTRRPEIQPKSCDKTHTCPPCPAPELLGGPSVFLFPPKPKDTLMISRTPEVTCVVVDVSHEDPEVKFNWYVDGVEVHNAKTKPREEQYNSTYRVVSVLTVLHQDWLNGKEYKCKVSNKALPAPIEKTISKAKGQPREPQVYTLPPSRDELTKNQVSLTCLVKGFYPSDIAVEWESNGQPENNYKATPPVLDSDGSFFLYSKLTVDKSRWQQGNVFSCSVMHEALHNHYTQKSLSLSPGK

[5] = biological target: T3, MAdCAM-IgG1 Fc fusion protein; test: cell-based or functional assay
Target sequence in this assay (chain, as listed by the source limits assumed): as above

[6] = biological target: T3, MAdCAM-IgG1 Fc fusion protein; test: cell-based or functional assay; remark: listed apart in the source

B1: anti-MAdCAM monoclonal antibody 6.77.1 (antibody, human IgG4, kappa, V domains shown)
VH: EVQLVESGGGLVKPGGSLRLSCAASGFTFSSYSMNWVRQAPGKGLEWVSSISSSSSYIYYADSVKGRFTISRDNAKNSLYLQMNSLRAEDTAVYYCARDGYSSGWSYYYYYGMDVWGQGTTVTVSS
VL: DIVMTQTPLSLSVTPGQPASISCNSSQSLLLSDGKTYLNWYLQKPGQPPQLLIYEVSNRFSGVPDRFSGSGSGTDFTLKISRVEAEDVGVYSCMQSIQLMCSFGQGTKLEIKR
notes: human IgG4 kappa from hybridoma 6.77.1
Recombinant mouse MAdCAM
  binding result: no binding
[1]
  Functional IC50, cynomolgus/human MAdCAM-CHO/JY adhesion assay: 0.64 µg/mL
[2]
  Kd: ≤ 0.0067 nM
  koff: ≤ 1e-05 s⁻¹
  kon: 1.5e+06 M⁻¹ s⁻¹
[3]
  Mean IC50, JY cell adhesion, MAdCAM FlpIn CHO Assay: 0.52 µg/mL

B2: anti-MAdCAM monoclonal antibody 9.8.2 (antibody, human IgG4, kappa, V domains shown)
VH: QVQLVESGGGVVQPGRSLRLSCAASGFTFSSYGMHWVRQAPGKGLEWVAVIWYDGSNEYYADSVKGRFTISRDNSKNTLYLQMNSLRAEDTAVYYCARGAYHFAYWGQGTLVTVSS
VL: DIQMTQSPSSLSASVGDRVTITCQASQDISNYLNWYQQKPGKAPKLLIYDASNLETGVPSRFSGSGSGTDFTFTISSLQPEDIATYSCQHSDNLSITFGQGTRLEIKR
notes: human IgG4 kappa from hybridoma 9.8.2
[4]
  Kd: 0.0325 nM
  koff: 1.4e-05 s⁻¹
  kon: 440000 M⁻¹ s⁻¹
Recombinant mouse MAdCAM
  binding result: no binding
[1]
  Functional IC50, cynomolgus/human MAdCAM-CHO/JY adhesion assay: 0.83 µg/mL
[2]
  Kd: 0.1 nM
  koff: 0.00023 s⁻¹
  kon: 2.3e+06 M⁻¹ s⁻¹
[3]
  Mean IC50, JY cell adhesion, MAdCAM FlpIn CHO Assay: 0.44 µg/mL
[5]
  Mean IC50, JY cell adhesion to MAdCAM IgG1 Fc fusion: 0.02 µg/mL

B3: modified anti-MAdCAM monoclonal antibody 6.22.2-mod (antibody, human IgG2, kappa, V domains shown)
VH: QVQLVESGGGVVQPGRSLRLSCAASGFTFSSDGMHWVRQAPGKGLEWVAIIWYDGSNKYYADSVKGRFTISRDNSKNTLYLQMNSLRAEDTAVYYCARDPGYYYGMDVWGQGTTVTVSS
VL: EIVLTQSPDFQSVTPKEKVTITCRASQRIGSSLHWYQQKPDQSPKLLIKYASQSFSGVPSRFSGSGSGTDFTLTINSLEAEDAATYYCHQSGRLPLTFGGGTKVEIKR
[6]
  MAdCAM IgG1 Fc fusion Assay Mean IC50 (Modified): 0.058 µg/mL

B4: modified anti-MAdCAM monoclonal antibody 6.34.2-mod (antibody, human IgG2, kappa, V domains shown)
VH: QVQLVESGGGVVQPGRSLRLSCAASGFTFSSYGMHWVRQAPGKGLEWVAVISNDGNNKYYADSVKGRFTISRDNSKNTLYLQMNSLRAEDTAVYYCARDSTAITYYYYGMDVWGQGTTVTVSS
VL: DIQMTQSPSSLSASVGDRVTITCRASQSISSYLNWYQQKPGKAPKLLIYAASGLKRGVPSRFSGSGSGTDFTLTISSLQPEDFATYYCHQSYSLPFTFGPGTKVDIKR
[6]
  MAdCAM IgG1 Fc fusion Assay Mean IC50 (Modified): 0.049 µg/mL

B5: modified anti-MAdCAM monoclonal antibody 6.67.1-mod (antibody, human IgG2, kappa, V domains shown)
VH: QVQLQESGPGLVKPSETLSLTCTVSGDSISSNYWSWIRQPAGKGLEWIGRIYTSGGTNSNPSLRGRVTMSVDTSKNQFSLKLSSVTAADTAVYYCARDRITIIRGLIPSFFDYWGQGTLVTVSS
VL: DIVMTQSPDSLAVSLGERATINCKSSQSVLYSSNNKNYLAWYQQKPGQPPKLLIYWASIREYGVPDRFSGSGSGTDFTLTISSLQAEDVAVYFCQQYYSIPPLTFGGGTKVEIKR
[6]
  MAdCAM IgG1 Fc fusion Assay Mean IC50 (Modified): 0.037 µg/mL

B6: modified anti-MAdCAM monoclonal antibody 6.77.1-mod (antibody, human IgG2, kappa, V domains shown)
VH: EVQLVESGGGLVKPGGSLRLSCAASGFTFSSYSMNWVRQAPGKGLEWVSSISSSSSYIYYADSVKGRFTISRDNAKNSLYLQMNSLRAEDTAVYYCARDGYSSGWSYYYYYGMDVWGQGTTVTVSS
VL: DIVMTQTPLSLSVTPGQPASISCKSSQSLLLSDGKTYLNWYLQKPGQPPQLLIYEVSNRFSGVPDRFSGSGSGTDFTLKISRVEAEDVGVYSCMQSIQLMSSFGQGTKLEIKR
[6]
  MAdCAM IgG1 Fc fusion Assay Mean IC50 (Modified): 0.077 µg/mL
